According to patent publication US20220002363A1, “COMPOSITIONS AND METHODS FOR TREATING PULMONARY DISEASE” (United States Government As Represented By The Department …, priority 2020, published 2022):
“Also recorded” adds a separate entry of the source.

Tested on: LPS-treated C57BL/6 mice
Assay: Oropharyngeal LPS lung injury model in C57BL/6 mice treated with mut-sFasL
Assay type: in vivo, mouse
Conditions: for pro-injury or pro-inflammatory effects: normal lungs / administered 24 hours after intratracheal LPS, any dose
Experimental: FIGS. 5A-E show the effects of mut-sFasL on markers of lung inflammation in LPS-treated mice. C57BL/6 mice received oropharyngeal instillations of either PBS or LPS, 2.5 μg/mL. Four hours later some of the mice received oropharyngeal instillations of PBS or mut-sFasL at concentrations of 10 and 100 ng/g and were euthanized 24 hours after the initial LPS/PBS instillations (“early” group). Other mice received the PBS or mut-sFasL (same dose range) 24 hours after LPS/PBS and were euthanized 48 hours after the original LPS instillation (“late” group). N=6 for the groups. In the “late” group, treatment with 100 ng/g mut-sFasL reduced BAL total cells (FIG. 5A), lung homogenate MPO activity (FIG. 5B), and the BAL concentrations of TNF-α, MIP-1β and MCP-1 (FIGS. 5C-E). Data were analyzed by 2-way ANOVA with Dunnet's post hoc analysis; comparisons made to 0 ng/mL for each condition. Data are reported as box plots, in which the box depicts the 25th to 75th percentiles and the lines the min to max range. *=P<0.05; **=P<0.01, ***P<0.001.
FIGS. 6A-D show the effects of mut-sFasL in LPS treated mice. C57BL/6 mice received oropharyngeal instillations of either PBS, or LPS, 2.5 μg/mL. Four hours later some of the mice received oropharyngeal instillations of PBS or mut-sFasL at concentrations of 10 and 100 ng/g and were euthanized 24 hours after the initial LPS/PBS instillations (“early” group). Other mice received the PBS or mut-sFasL (same dose range) 24 hours after LPS/PBS and were euthanized 48 hours after the original LPS instillation (“late” group). N=6 for all groups. […] The administration of mut-sFasL had no effect total BAL protein (FIG. 6B), BAL IgM (FIG. 6C) or total lung homogenate caspase 3/7 activity (FIG. 6D). Data are reported as box plots, in which the box depicts the 25th to 75th percentiles and the lines the min to max range. Data were analyzed by 2-way ANOVA with Dunnett's post hoc analysis; comparisons were made to 0 ng/mL for each condition.
Animal studies. Mice were housed in conventional cages with ad libitum access to tap water and standard chow, in humidity-controlled (50%) and temperature-controlled (22° C.-23° C.) rooms with 12 hours/12 hours light/dark cycles. In the morning, male C57BL/6J mice (Jackson Laboratories, Bar Harbor Me.) weighing […] were anesthetized with 4% inhaled isoflurane and randomized to treatment for one oropharyngeal instillations of either PBS, or LPS, 2.5 μg/mL (Sigma-Aldrich, St. Louis Mo.) (Time=0 hr). The PBS group was instilled first to avoid cross-contamination with LPS. The mice were allowed to recover from anesthesia, given full access to food and water. […] Some of the mice received oropharyngeal instillations of mut-sFasL at 4 hr and were euthanized at 24 hr (“early” group). Other mice received oropharyngeal mut-sFasL at 24 hours and were euthanized at 48 hr (“late” group). In both cases, mut-sFasL doses were 0, 30 and 100 ng/mL. The number of mice used per group was 6, and the total number of mice was 54.
Following instillations, the mice were monitored for signs of discomfort every 15 minutes during the first hour, and then every four hours during daytime. The primary monitoring parameters were loss of prone posture, loss of movement with mild physical stimulation, weight loss of >20% (weight was measured once per day) and severe respiratory distress. Secondary monitoring parameters included ruffled fur, nasal or ocular discharge and an abnormal respiratory pattern. The presence of one major parameter or two minor parameters was considered an indication for euthanasia, but no mice met these criteria. […]

[1] = LPS, 24 hr (early group), mut-sFasL 30
[2] = LPS, 24 hr (early group), mut-sFasL 100
[3] = LPS, 48 hr (late group), mut-sFasL 30
[4] = LPS, 48 hr (late group), mut-sFasL 100

B1: mut-sFasL: mutant sFasL molecule in which 8 charged amino acids in the 26 amino acid stalk region were changed to alanine (protein)
chain: QLFALQAALAALAASTSQMATASSLAKQIGHPSPPPEKKELRKVAHLTGKSNSRSMPLEWEDTYGIVLLSGVKYKKGGLVINETGLYFVYSKVYFRGQSCNNLPLSHKVYMRNSKYPQDLVMMEGKMMSYCTTGQMWARSSYLGAVFNLTSADHLYVNVSELSLVNFEESQTFFGLYKL
- BAL cytokine concentration IL-1β [1]: 14.3 ± 10.6
- BAL cytokine concentration KC [1]: 118.4 ± 43.7
- BAL cytokine concentration MIP-1α [1]: 47.9 ± 10.6
- BAL cytokine concentration MIP-2 [1]: 78.0 ± 28.1
- BAL cytokine concentration IL-1β [2]: 18.6 ± 5.5
- BAL cytokine concentration KC [2]: 154.4 ± 94.3
- BAL cytokine concentration MIP-1α [2]: 85.3 ± 20.0
- BAL cytokine concentration MIP-2 [2]: 124.1 ± 29.1
- BAL cytokine concentration IL-1β [3]: 37.8 ± 23.3
- BAL cytokine concentration KC [3]: 113.2 ± 55.8
- BAL cytokine concentration MIP-1α [3]: 154.5 ± 78.7
- BAL cytokine concentration MIP-2 [3]: 146.7 ± 72.7
- BAL cytokine concentration IL-1β [4]: 44.5 ± 23.1
- BAL cytokine concentration KC [4]: 136.9 ± 51.9
- BAL cytokine concentration MIP-1α [4]: 153.9 ± 42.4
- BAL cytokine concentration MIP-2 [4]: 135.7 ± 29.9
- BAL IgM (LPS-induced increase): did not affect; also recorded: had no effect
- BAL total protein (LPS-induced increase): did not affect; also recorded: had no effect
- lung homogenate caspase-3/7 activity (LPS-induced increase): did not affect; also recorded: had no effect
- BAL IL-1β (in words) (LPS-treated mice): increase
- BAL KC (in words) (LPS-treated mice): not affected
- BAL MIP-1α (in words) (LPS-treated mice): increase
- BAL MIP-2 (in words) (LPS-treated mice): not affected
- weight loss (LPS-treated mice, percent change from initial weight): not affected; also recorded: Weight loss was similar regardless of treatment
- BAL cytokine concentration IL-1β (PBS group, mut-sFasL 30): 0.2 ± 0.0
- BAL cytokine concentration KC (PBS group, mut-sFasL 30): 1.2 ± 0.6
- BAL cytokine concentration MIP-1α (PBS group, mut-sFasL 30): 0.08 ± 0.03
- BAL cytokine concentration MIP-2 (PBS group, mut-sFasL 30): 0.1 ± 0.0
- BAL cytokine concentration IL-1β (PBS group, mut-sFasL 100): 0.2 ± 0.1
- BAL cytokine concentration KC (PBS group, mut-sFasL 100): 1.9 ± 0.9
- BAL cytokine concentration MIP-1α (PBS group, mut-sFasL 100): 0.29 ± 0.28
- BAL cytokine concentration MIP-2 (PBS group, mut-sFasL 100): 2.3 ± 2.8
- lung apoptosis or permeability measurements (PBS-treated mice): did not lead to an increase in lung apoptosis or permeability measurements
- effect of early administration (early group (mut-sFasL 4 hours after LPS, euthanized 24 h)): no measurable effect
- BAL concentration of MCP-1 (late group): decrease; also recorded: reduced
- BAL concentration of MIP-1β (late group): decrease; also recorded: reduced
- BAL concentration of TNF-α (late group): decrease; also recorded: reduced
- BAL total cell counts (late group (mut-sFasL 24 h after LPS, euthanized 48 h), 100 ng/mL, 100 ng/g): decreased; also recorded: reduced
- total lung (homogenate) MPO activity (late group, doses of 30 and 100 ng/mL, 100 ng/g): significantly decreased; also recorded: reduced
- pro-injury or pro-inflammatory effects: did not have important pro-injury or pro-inflammatory effects at any dose
- pro-injury or pro-inflammatory effects (listed as sFasL with mutated stalk region): not injurious in normal lungs
